Measurements reported in publication PMC4739769, “Transmembrane chemokines act as receptors in a novel mechanism termed inverse signaling” (eLife, 2016).

T1: transmembrane CXCL16 with a hemagglutinin tag, expressed in LOX melanoma cells (human, UniProt Q9H2A7 30-254)
T1 construct: CXCL16, transmembrane form; expression vector CXCL16-HA in pcDNA3.1 as described in Abel et al., 2004; called full-length tm-chemokine in the results; also called tm-CXCL16; CXCL16-HA; source: LOX melanoma cells, transfected (pcDNA3.1), on cells or in isolated membranes
T1 sequence (looked up): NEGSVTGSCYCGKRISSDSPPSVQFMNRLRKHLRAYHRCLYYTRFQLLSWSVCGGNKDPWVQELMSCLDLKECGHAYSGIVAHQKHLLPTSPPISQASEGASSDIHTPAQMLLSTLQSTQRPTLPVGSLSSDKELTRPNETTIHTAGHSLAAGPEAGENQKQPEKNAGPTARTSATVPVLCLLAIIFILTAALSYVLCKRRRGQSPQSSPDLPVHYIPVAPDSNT


How the values were obtained:
[1] = biological target: transmembrane CX3CL1, expressed in LOX melanoma cells (human) (UniProt P78423); assay: cross-linking; isolated membranes of tm-chemokine overexpressing LOX cells (1.5 mg membrane protein, 0.2 M triethanolamine-hydrochloride pH 8.0) with 2 nM recombinant s-chemokine over night at 4°C; 1% paraformaldehyde 1 hr at room temperature; SDS-PAGE and Western blot
[2] = biological target: T1, transmembrane CXCL16 with a …; assay: as above; conditions: one partner purified

Sequence of transmembrane CX3CL1, expressed in LOX melanoma cells (human) (P78423 25-397): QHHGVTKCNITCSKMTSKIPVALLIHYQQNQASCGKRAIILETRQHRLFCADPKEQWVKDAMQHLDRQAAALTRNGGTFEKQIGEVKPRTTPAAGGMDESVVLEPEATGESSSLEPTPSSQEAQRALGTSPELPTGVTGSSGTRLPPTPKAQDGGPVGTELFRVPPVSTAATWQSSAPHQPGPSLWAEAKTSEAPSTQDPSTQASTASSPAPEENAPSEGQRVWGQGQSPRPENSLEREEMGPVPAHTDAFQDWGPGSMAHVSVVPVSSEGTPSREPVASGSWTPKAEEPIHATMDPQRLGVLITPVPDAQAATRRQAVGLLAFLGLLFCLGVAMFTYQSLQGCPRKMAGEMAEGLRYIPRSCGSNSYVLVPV

| stoichiometry N [1] | stoichiometry N [2] | Molecule |
| --- | --- | --- |
| 1 to 2 | – | soluble CX3CL1 (recombinant human chemokine) (ligand) |
| – | 1 to 2 | soluble CXCL16 (recombinant human chemokine) (ligand, Cy3 (monoreactive NHS ester) for light microscopy; biotin (One-step antibody biotinylation kit) for flow cytometry; adsorbed to 5 nm gold particles for electron microscopy; no label named for cross-linking and stimulation) NEGSVTGSCYCGKRISSDSPPSVQFMNRLRKHLRAYHRCLYYTRFQLLSWSVCGGNKDPWVQELMSCLDLKECGHAYSGIVAHQKHLLP |
